Experimental data: patent publication US20240199740A1
Values belong to the binder of their own block, whether it stands above or below them.

Experiments:
[1] = molecular target: recombinant human CD123 protein (R&D Systems, 301-R3/CF) (human) (UniProt P26951); test: ELISA, antibody 7G3 coated at 1 µg/ml, in house biotinylated recombinant CD123 titrated (concentration axis taken as CD123 per paragraph 750)
[2] = molecular target: recombinant human CD123 protein (R&D Systems, 301-R3/CF) (human) (UniProt P26951); test: competition ELISA, coated antibody 7G3, 4 nM biotinylated recombinant CD123, antibody 7G3 in solution titrated
[3] = molecular target: cynomolgus TCR/CD3 expressed on cells (cynomolgus); test: cell-based or functional assay

Sequence of recombinant human CD123 protein (R&D Systems, 301-R3/CF) (human) (P26951 19-305): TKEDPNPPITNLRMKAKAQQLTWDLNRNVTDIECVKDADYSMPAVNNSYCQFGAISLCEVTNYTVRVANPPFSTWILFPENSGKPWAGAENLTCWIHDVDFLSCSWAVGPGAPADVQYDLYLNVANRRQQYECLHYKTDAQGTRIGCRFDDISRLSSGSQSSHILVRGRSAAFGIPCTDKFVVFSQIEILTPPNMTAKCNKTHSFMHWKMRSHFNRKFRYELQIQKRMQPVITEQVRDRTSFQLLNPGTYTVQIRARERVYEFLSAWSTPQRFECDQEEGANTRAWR

EC50 (read off the curve) [1]: 10 nM | IC50 (read off the curve) [2]: 2 nM
B1: mouse monoclonal anti-CD123 antibody (clone 7G3) (antibody, from another filing, V domains shown)
VH: EVQLQQSGPELVKPGASVKMSCKASGYTFTDYYMKWVKQSHGKSLEWIGDIIPSNGATFYNQKFKGKATLTVDRSSSTAYMHLNSLTSEDSAVYYCTRSHLLRASWFAYWGQGTLVTVSA
VL: DFVMTQSPSSLTVTAGEKVTMSCKSSQSLLNSGNQKNYLTWYLQKPGQPPKLLIYWASTRESGVPDRFTGSGSGTDFTLTISSVQAEDLAVYYCQNDYSYPYTFGGGTKLEIK

B2: T017000135 (bispecific antibody)
chain: DVQLVESGGGLVQAGGPLRLSCAASGRTFSSYVMGWFRQAPGKEREFVAAIYWSNGKTQYTDSVKGRFTISGDNAKNTVYLQMNSLNPEDTAVYYCVADKDETGFRTLPIAYDYWGQGTLVTVSSGGGGSGGGGSGGGGSGGGGSGGGGSGGGGSGGGGSEVQLVESGGGLVQPGGSLRLSCVASGDVHKINFLGWYRQAPGKEREKVAHISIGDQTDYADSAKGRFTISRDESKNMVYLQMNSLKPEDTAVYFCRAFSRIYPYDYWGQGTLVTVSSGGGGSGGGGSGGGGSGGGGSGGGGSGGGGSGGGGSEVQLVESGGGLVQAGGSLRLSCAASGITSKINDMGWYRQTPGNYREWVASITATGTTNYRDSVKGRFTISRDNAKSTVYLQMNSLKPEDTTVYYCNTFPPISNFWGQGTLVTVSSA
% lysis, redirected cyno T cell mediated killing of KG1a cells, flow cytometry [3]: 22% | EC50 (M), redirected cyno T cell mediated killing of KG1a cells, flow cytometry [3]: 2.4e-11 M
